Assay results published in PMC9188544, “Mechanism of glycogen synthase inactivation and interaction with glycogenin” (Nature Communications, 2022).
Numbering of substitutions follows the chain as printed. Numbers in names are those of the source.

Key:
Experiment in all cases: co-purification (HisTrap, TEV cleavage, Ni subtraction, Superdex200 gel filtration); GS WT or mutant co-expressed with GN(Y195F) in insect cells, both with N-terminal His6-TEV; lysate loaded on the HisTrap column
Details in all cases: partners not purified
[1] = target: T1, human glycogen synthase 1 (GS1), wild type, pFastBac construct with N-terminal His6-TEV, co-expressed with … (human, UniProt P13807 1-737, phosphorylation at S8, S641 and S641/S645 probed by immunoblot (Fig. 4b))
T1 construct: glycogen synthase 1 (muscle), human, encoded by GYS1, cDNA NM 002103; also called GS WT; WT GS; not shown: His6, N-terminal, cleaved
T1 sequence (looked up): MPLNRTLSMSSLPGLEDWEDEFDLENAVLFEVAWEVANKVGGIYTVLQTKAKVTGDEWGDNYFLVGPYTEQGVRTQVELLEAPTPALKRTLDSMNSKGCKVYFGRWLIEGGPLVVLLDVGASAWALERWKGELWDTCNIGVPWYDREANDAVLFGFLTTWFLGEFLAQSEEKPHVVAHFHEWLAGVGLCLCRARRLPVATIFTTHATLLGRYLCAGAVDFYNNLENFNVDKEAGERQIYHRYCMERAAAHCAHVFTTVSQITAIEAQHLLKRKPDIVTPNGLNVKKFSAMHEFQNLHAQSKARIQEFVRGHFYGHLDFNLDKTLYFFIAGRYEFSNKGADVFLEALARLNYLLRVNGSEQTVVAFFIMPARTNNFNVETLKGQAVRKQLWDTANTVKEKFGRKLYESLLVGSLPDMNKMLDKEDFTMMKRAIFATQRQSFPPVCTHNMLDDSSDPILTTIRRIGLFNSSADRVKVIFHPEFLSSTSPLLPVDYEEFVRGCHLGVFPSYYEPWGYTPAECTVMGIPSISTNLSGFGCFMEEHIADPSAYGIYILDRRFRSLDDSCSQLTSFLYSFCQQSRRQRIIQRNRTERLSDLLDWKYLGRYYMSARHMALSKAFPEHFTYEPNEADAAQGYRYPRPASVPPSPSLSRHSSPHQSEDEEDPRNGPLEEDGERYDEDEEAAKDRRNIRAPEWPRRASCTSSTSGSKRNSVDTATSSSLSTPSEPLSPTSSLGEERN

[2] = target: T2, human glycogen synthase 1 (GS1) Y600A (human, UniProt P13807 1-737, Y600A, phosphorylation at S8, S641 and S641/S645 probed by immunoblot (Fig. 4b))
T2 construct: glycogen synthase 1 (muscle), human, encoded by GYS1, cDNA NM 002103; also called GS Y600A; not shown: His6, N-terminal, cleaved
T2 sequence (looked up): T1 sequence (looked up) with Y600A

[3] = target: T3, human glycogen synthase 1 (GS1) H610E (human, UniProt P13807 1-737, H610E, phosphorylation at S8, S641 and S641/S645 probed by immunoblot (Fig. 4b))
T3 construct: glycogen synthase 1 (muscle), human, encoded by GYS1, cDNA NM 002103; also called GS H610E; not shown: His6, N-terminal, cleaved
T3 sequence (looked up): T1 sequence (looked up) with H610E

Measured: binding result

B1: human glycogenin 1 (GN1) Y195F, full length, non-glucosylated (enzyme, UniProt P46976-2 1-333, looked up)
chain: MTDQAFVTLTTNDAYAKGALVLGSSLKQHRTTRRLVVLATPQVSDSMRKVLETVFDEVIMVDVLDSGDSAHLTLMKRPELGVTLTKLHCWSLTQYSKCVFMDADTLVLANIDDLFDREELSAAPDPGWPDCFNSGVFVYQPSVETYNQLLHLASEQGSFDGGDQGILNTFFSSWATTDIRKHLPFIYNLSSISIFSYLPAFKVFGASAKVVHFLGRVKPWNYTYDPKTKSVKSEAHDPNMTHPEFLILWWNIFTTNVLPLLQQFGLVKDTCSYVNVEDVSGAISHLSLGEIPAMAQPFVSSEERKERWEQGQADYMGADSFDNIKRKLDTYLQ
notes: glycogenin 1, human, encoded by GYG1, cDNA NM 001184720, full length; expected ~37.5 kDa; the C-terminal GN34 region is modelled as residues 300-332, which fits the 333-residue isoform; Cloned in pFL (with untagged GS) and in pFastBac (co-infected with His6-TEV-GS WT or mutants); Both carry an N-terminal His6 tag and a cleavable site, so they are treated as one molecule; also called GN(Y195F); GN …
binds: [1] | [2] | [3]
